# Laboratory results from article PMC3375335, “The Interdomain Linker of AAV-2 Rep68 Is an Integral Part of Its Oligomerization Domain: Role of a Conserved SF3 Helicase Residue in Oligomerization” (PLoS Pathogens, 2012).
# Read-outs that look alike come from different tables or passages of the source.
# B1: AAV-2 Rep40 (natural protein)
# chain: MELVGWLVDKGITSEKQWIQEDQASYISFNAASNSRSQIKAALDNAGKIMSLTKTAPDYLVGQQPVEDISSNRIYKILELNGYDPQYAASVFLGWATKKFGKRNTIWLFGPATTGKTNIAEAIAHTVPFYGCVNWTNENFPFNDCVDKMVIWWEEGKMTAKVVESAKAILGGSKVRVDQKCKSSAQIDPTPVIVTSNTNMCAVIDGNSTTFEHQQPLQDRMFKFELTRRLDHDFGKVTKQEVKDFFRWAKDHVVEVEHEFYVKKGGAKKRPAPSDADISEPKRVRESVAQPSTSDAEASINYADRLARGHSL
# modifications: Start at 225 follows from the text; the C-terminus of the assayed Rep40 is not given, so full-length Rep40 (to 536) is taken; 225-490 is given only for the crystal structure 1S9H. ATP or ADP added …
# Columns and labels:
# Rep68ΔN200 = molecular target: T1, Rep68ΔN200 (Adeno-associated virus 2 Srivastava/1982, UniProt P03132); assay type: binding; conditions: 36 µM protein, 200 mM NaCl, pH 8.0, 20 °C
# T1 construct: gene Rep68; Rep68 without the OBD: full interdomain linker plus helicase domain, to residue 536; start 201 read from the name; pET-15b, E. coli BL21(DE3); also printed Rep68Δ200, RepΔN200
# Rep68ΔN209 = molecular target: T2, Rep68ΔN209 (Adeno-associated virus 2 Srivastava/1982, UniProt P03132); assay type: binding; conditions: 36 µM protein, 200 mM NaCl, pH 8.0, 20 °C
# T2 construct: gene Rep68; residues 210-536, part of linker plus helicase domain; pET-15b, E. coli BL21(DE3)
# [1] = molecular target: OBD-linker (residues 1-224) of AAV-2 Rep68 (adeno-associated virus 2 (AAV-2)) (UniProt P03132); test: AUC; sedimentation velocity without nucleotide, 40,000 rpm, 20°C, 25 mM Tris-HCl pH 8.0, 200 mM NaCl, 2 mM TCEP; c(s) by sedfit; constants from a global fit (sedphat) to a monomer-dimer model: dimer to monomers
# [2] = molecular target: Rep68Y224A (adeno-associated virus 2 (AAV-2)) (UniProt P03132); test: AUC
# [3] = molecular target: Rep68ΔN200 (adeno-associated virus 2 (AAV-2)) (UniProt P03132); test: AUC; sedimentation velocity without nucleotide, 40,000 rpm, 20°C, 25 mM Tris-HCl pH 8.0, 200 mM NaCl, 2 mM TCEP; c(s) by sedfit; constants from a global fit (sedphat) to a monomer-dimer model: dimer to monomers
# [4] = molecular target: Rep68ΔN200 (adeno-associated virus 2 (AAV-2)) (UniProt P03132); test: AUC
# [5] = molecular target: Rep68ΔN200 (adeno-associated virus 2 (AAV-2)) (UniProt P03132); test: cross-linking; DMP (dimethyl pimelimidate), 30 fold molar excess, 60 min at room temperature, protein 2 mg/ml, 25 mM HEPES, 200 mM NaCl, pH 8.0; 8% SDS-PAGE
# [6] = molecular target: Rep68ΔN209 (adeno-associated virus 2 (AAV-2)) (UniProt P03132); test: AUC
# [7] = molecular target: Rep68ΔN214 (adeno-associated virus 2 (AAV-2)) (UniProt P03132); test: AUC
# AAV-2 Rep40 [8] = molecular target: T3, AAV-2 Rep40 (adeno-associated virus 2 (AAV-2), UniProt P03132 225-536); test: AUC; sedimentation velocity without nucleotide, 40,000 rpm, 20°C, 25 mM Tris-HCl pH 8.0, 200 mM NaCl, 2 mM TCEP; c(s) by sedfit; constants from a global fit (sedphat) to a monomer-dimer model: dimer to monomers; conditions: both partners purified
# AAV-2 Rep40 [9] = molecular target: T3, AAV-2 Rep40; test: as above; conditions: both partners purified; remark: listed apart in the source
molecule,measurement,setting,value
Nc1ncnc2c1ncn2[C@@H]1O[C@H](COP(=O)(O)OP(=O)(O)O)[C@@H](O)[C@H]1O [ADP],"sedimentation velocity ultracentrifugation, nucleotide-induced oligomerization",Rep68ΔN200; 5 mM ADP,ADP produces two main populations sedimenting at ∼3S and ∼7S
same,"sedimentation velocity ultracentrifugation, nucleotide-induced oligomerization",Rep68ΔN209; 5 mM ADP,ADP produces two main populations sedimenting at ∼3S and ∼7S
Nc1ncnc2c1ncn2[C@@H]1O[C@H](COP(=O)(O)OP(=O)(O)OP(=O)(O)O)[C@@H](O)[C@H]1O [ATP],"sedimentation velocity ultracentrifugation, nucleotide-induced oligomerization",Rep68ΔN200; 5 mM ATP,"ATP on the other hand, seems to generate more stable species at ∼7S"
same,"sedimentation velocity ultracentrifugation, nucleotide-induced oligomerization",Rep68ΔN209; 5 mM ATP,"ATP on the other hand, seems to generate more stable species at ∼7S"
OBD-linker (residues 1-224) of AAV-2 Rep68 (from UniProt P03132 1-224) (domain or fragment),stoichiometry N,[1],2
Rep68Y224A (from UniProt P03132 1-536) (natural protein),stoichiometry N,[2],2
Rep68ΔN200 (from UniProt P03132 201-536) (domain or fragment),Kd,[3],79 µM
same,logKa,[3],4.1
same,stoichiometry N,[3],2
same,stoichiometry N,[4],2
same,stoichiometry N,[5],2
Rep68ΔN209 (from UniProt P03132 210-536) (domain or fragment),stoichiometry N,[6],2
Rep68ΔN214 (from UniProt P03132 215-536) (domain or fragment),stoichiometry N,[7],2
B1,Kd,AAV-2 Rep40 [8],730 µM
same,stoichiometry N,AAV-2 Rep40 [9],2
